Results: the nanobody polyreactivity screen of Harvey et al. (2022)

Assay: yeast display, Sf9 membrane polyspecificity reagent, FACS + sequencing; frameworks hold sequencing errors
Method in brief: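 Synthetic nanobody libraries on Saccharomyces cerevisiae BJ5465 were galactose-induced for 36–48 hours, stained 1 hour at 4 °C with 10% biotinylated, detergent-solubilized Sf9 membrane reagent and enriched on streptavidin microbeads. FACS then separated cells into low and high (top ~1%) gates by anti-HA (expression) and streptavidin (reagent binding) fluorescence. Genes were colony-PCR amplified, MiSeq 2 × 250 sequenced and CDR-length filtered. A clone's polyreactivity label is that of its gate of origin.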

Sequence	polyreactivity (PSR sort gate)
QVQLVESAGGLVQAGGSLRLSCAASRRTFARYAIGRYRQAPGQERELVAALSRSGTCTYYADSVLGRFTISRDNAKNTVYLQKNSLKPEDCAVYYCAVDAYLGHYDYWGQGTQVTVSS	high polyreactivity
QVQLVESGGGLVQAGGSLRLSCAASGFTFVDNAMGWYRQAPGKERELVAVIDFNDGTTYYADSVKGRFTISRDNAKNSVYLQMNSLKPEDTEVYYCNVDSSLILWVEYDYWGQGTQVTVSS	low polyreactivity
QVQLVESGGGLVQAGGSLRLSCAASGRTFWAYAMGWYRQAPGKERELVAAISVSGGRTYYADSVKGRFTISRDNAKYTVYLQMNSLKPEDSAVYYCNKRYLKSYQYYWGQGSQVTVSS	high polyreactivity
QVHLVESGGGLVEAGGSLRLSCAASGRIFQGYAMGWYRQAPGKERELVAAITRSGGSTYYADSVKGRFTISRDNAKNTVYLQMNSLKPEDTAVYYCAASHYGLLEYWGQGTQVTVSS	low polyreactivity
QVQLIESGGGLVQAGGSLRLSCAASGSTFERNTMGWYRQAPGKERELVAAITSGGRTYYADSVKGRFTISRDNAKNTVYLQMNSLKPEDTAVYYCAARLGRHVSYWRSGWTNMDYWGQGTQVTVSS	high polyreactivity
QVQLVESGGGLVQAGGSLRLSCAASGGTFSSYAMGWYRPAPGKERELVADITRRGGSTYYADSVKGRFTISRDNAKNTVYLQMNSLKPEDTAVYYCAKDYFRRGLWGFSIYGYWGQGTQVTVSS	high polyreactivity
QVQLVESGGGLVQAGGSLRLSCAASGRIFVRYAKGWYRQAPGKERELVAAISRSGGSTYYADSVKGRFTISRDNAKNTVYLQMNSLKPEDTAVYYCNAAYWRRYYQLEDYWGQGTQVTVSS	high polyreactivity
QVQLVESGGGLVQAGGSLRLSCAASGGIFGYYTMGWYRQAPGKERELVAAITWRGSTYYADSVKGRFTISRDNAKNTVYLQMNSLKPEDTAVYYCAARYYSPYGYCGQGTQVTVSS	high polyreactivity
QVQLVESGGGLVQAGGSLRLSCAASGFTLLPNAMGWYRQAPGKERELVAAITASGGRTYYADSVKGRFTISRDNAKNTVYLQMNSLKPEDSAVYYCNAGVYYYYHYTRMDYWGQGTQVTVSS	low polyreactivity
QVQLVESGGGLVQAGGSLRLSCAASGRTFKIYAMGWYRQAPGKERELVAAITWNGDSTHYADSVKGRFTISRDNAKNTVYLQMNSLKPEDTAVYYCNRVGYQSMNYWGQGTQVTVSS	low polyreactivity
QVQLVESGGGLVQAGGSLRLSCAASGSTFSYYAMGWYRQAPGKERELVAAISSRGGSTYYADSVKGRFTISRDNAKNTVYLQMNSQKPEDTAVYYCNADHQFRSSVSGDHDYWGQGTQVTVSS	high polyreactivity
QVQLVESGGGLVQAGGRLRLSCAASGSIFYYYAMGWYRQAPGTERELVAAISRGGNTYYADSVKGRFTNSRDNAKNTVYLQMNSLKPEDTAVYYCNARPPNKRYKYGYWGQGTQVTVSS	high polyreactivity
QVQLVESGGGLVQAGGSLRLSCAASGFTFQKNAMGWNRQAPGKERDLVARITRSDGSTYYADSVKGRFTISRDNAKNTVYLPMNSLKPEDTAVYYWAARYCRLGSSRGGYWGQCTQVTVSS	low polyreactivity
QVQLVESGGGLVQAGGSLRLSCAAYGRIFSRYAMGWYRQAPGKERELVAAISSSGTTTYYADSVNGRFTISRDTAKNTVYLQMNSLKPEDTAVYSCATSAVRHIYWGQGTQVTVSS	high polyreactivity
QVQLVESGGGLVQAGGSLRLSCAASGSIFNVYVMGWYRQAPGKERELVASITWTTGSTYADSVKGRFTISRDNAKNTVYLQMNSLKPEDTAVYYCNAEFPEDTSDDYWGQGTQVTVSS	low polyreactivity
QAELVESGGGLVQAGGSLRLSCAASGFTFTAYAMGWYRQAPGKERELVAAISYRGGRTNYAYSVKGRFTISRDNAKNTVYLQMNSLKPEDTAVYYCAARPRISTREMDYWGQGTQVTVSS	high polyreactivity
QVQRVESGGGLVQAGGSLRLSCAASGSIFNPYAMGWYRQARGKVRELGAAISKSGTSTSYADSRKGRFTISRDNAKNTVYLQMNSLKPEDTAVYYCAVQVRRRYNYWGQGTQETVSS	high polyreactivity
QVQLVESGGGLFQAGGSLRLSCAATGRTIVIYAMRWYRQAPGKERELVAAISFSGDTAYYADSVKGRFTISRDNAKNTVYLQMNSLKPDHTAVYYCAAVTQPWSYYRRDYWGQGTQVTVSS	high polyreactivity
QVQLVESGGGLVQAGGSLRLSCAASGSIFDYYAMGWYRQAPGKERELVAAISWRGGRTYYADSVKGRFTISRDNAKNTVYLQMNSLKPEDTAVYYCAAYFQRSGFSFRLRGQGTQVTVSS	high polyreactivity
HDQLVESAAGLVQAGGSLRLSCAASVLTFYQNALGWYRQAAGKEMEFVAAISRRGGSTYYADSVKGRFTISRDNAKNTVYLQMNSLKPEDTAVYYCAADYKRKSDGDYWGQGTQVTVSS	high polyreactivity
QVQLVESGGGLVQAGGSLRLSCAASGGMGWYRQAPGKERELVATISSVGSTNYADSVKGRFTISRDNAKNTVYLQRNSLKPEVTAVYYCNATGVQYFLYGYWGQGTQVTVSS	low polyreactivity
QVQLVESGGGLVQAGGSLRLSCAASGRIFTQYAMGWYRQAPGKERELVAAINASDGSTYYADSVKGRFTISRDNAKNTVYLQMNSLKPEDTAVYYCAGYAYNAIEYGYWGQGTQVTVSS	low polyreactivity

Sequence	polyreactivity (PSR sort gate)
QVQLVESGGGLVQAGGSLRLSCAASGRTFYYYAMGWYRQAHGKERELVAAISTNGGSTYYADSVKGRFTISRDNAKNTVYLQMNSLKPEDTAVYYCNTYAKPHRSGGGLGGHYYWGQGTQVTLSS	low polyreactivity
QVQLVESGGGLVQAGGSLRLSCAASGRIFRRYVMVWSRQAPGKERELVARIRIRDSNTYYADSVKGRFTISRDNAKNTVYLQMNSLKPEDTAVYYCAVVANYVYSKYDYWGQGTLVTVSS	high polyreactivity
QVQLVESAGRLVQAGGSLRLSCSASGSIFDWYAMGWYRQEPGKERELVAAISWSGGSTYYADSVKGRFTISRDNAKNTVYLQMNSLKPEDSAVYYCYAVFLYFNDDKFDNWGQGTQVTVSS	low polyreactivity
QVQLVESGGGLVQAGGSLRLSCAASGSIFHHNAMGWYRQAPGKERELVAAISSRSGNTYYADSVKGRFTISRDNAKNTVYLQMNSLKPEDTAVYYCAAGKRLSYSTYDSWGQGTQVTVSS	high polyreactivity
QVQLVESGGGLVQAGGSLRLSCAASGFIFRRYAMGWYRQAPGKERELVAAITRSGGSTYYADSVKGRFTISRDNAMNTVYLQMNSLKPEDTAVYYCNARYARVVPRYYYWGQGTQVTVSS	high polyreactivity
QVQLVESGGGLVQAGGSLRLSCAASGRIFGSYAMGWYRQAPGKERELVASITSSGGSTYYADSVKGRFTISRDNAKNTVYLQMNSLKPEDTAVYYCAAGCAYLDAFYPYGYWGQGTQVTVSS	low polyreactivity
QVQLVESGGGLVQAGGSLRLSCAASGLTFRINTMGWYRQAPGKERELVASISKSGSSTYYADSVKGRFTISRDNAKNTVYLQMNSLKPEDTAVYYCAARTRTLYVTYYSWGQGTQVTVSS	high polyreactivity
QVQLVESGGGLVQAGGSLRLSCAASGINFRQYTMGWFRQAPGKERELVAAITSSGRTYYADSVKGRFTISRDNAKNTVYLQMNSLKPEDTAVYYCAAKGTYRGHDYWGQGTQVTVSS	high polyreactivity
QVQLVESGGGLVQAGGSLRLSCAASGRTFRTYTMGWYRQAPGKERELVAAISRGGSTNYADSVKGRFTISRDNAKNTVYLQMNSLKPEYTAVYYCNAKASFWSPYDDWGQGTQVTVSS	high polyreactivity
QVQLVESGGGLVQAGGSLRLSCAAYGRTIPIYAMGWYRQAPGKEREFVAGINWSGGSTSYADSVKGRFTISRDNAKNTVYLQMNSLKPEDTAVYYCDADKYYRYNYWGQGTQVTVSS	high polyreactivity
QVQLVESGGGLVQAGGSLRLSCAASGFTFTSNAMGWYRQAPGKEREFVADISNIGGDTTYADSVKGRFTISRDNAKNTVYLQMNSLKPEDTAVYYCKADFAFIENDYWGQGTQVTVSS	low polyreactivity
QVQLVESGGGLVQAGGSLRLSCAASGFIFAYYAMGWYRQAPGKERELVAAISSRGGTYYADSVKGRFTISRDNAKNTVYFQMNSLKPEDTAVYYCAAASYTWVSRGYEYWGQGTQVTVSS	high polyreactivity
QVQRVESGGGLVQAGGSLRLSCAASGRTFAPYAMGWSRQAPGKARELVAGITYGGSRTYYADSVKGRFTISRDNAKNTVYLQMNSLKPEDPAVYYCNARSYPYQIRYVTYGAGYYYWGQGTQVTVSS	high polyreactivity
QVQLVESGGGLVQAGGSLRLSCAASGFIFQGNAKGWYRQAPGKERELVAAITRGGGRTYYADSVKGRFTISRDNSKNTVYLQMNSLKPEDSAVNYCNAVGRSKYDYWGQGTQVTVSW	high polyreactivity
QVQLVESGGGLVQAGGSLRLSCAASGSTIPGNAMGWYRQAHGKERELVASISGGGDSTYYADSVKGRFTISRDNAKNTVYLQMKSLKPEDTAVYYCAADYRQEPGYTGYYYLGQGTQVTVSS	low polyreactivity
QVQLEETGGGLLQAGGSLRLSSAASGRTFVNYAMGWYRQAPGKEREFVAAIDRRSGSTYYADSVKGRFTISRDNAKNTVYLQMTSLKPEDTAVDYCAASPYIYDSWGQGTQVTVSS	low polyreactivity
QVQLVESGGGLVQAGGSLRLSCAAPGSIFPRYAMGWYRQAPGKERELVAAISRSGGSTYYADSVKGRFTISRDNAKNTVSLQRNSLKPEDTAVYYCATDKVSHRRYDYWGQGTQVTVSS	high polyreactivity
QVHLVESGGGLVQAGGSLRLTCAASGIIFRLYAMGWYRQAPGKEREFVARISKRGGSTYYADSVKGRFTISRDNSKNTVYLQMNSLKPEDTAVYYCAADAPLSYYHDYDYWGQGTQVTVSS	high polyreactivity
QVQVVESGGGLVQAGGSLRLSCAASGSIFHAYTMGWSRQAPGKERELVAAISRGDRTYYADSVKGRFTISRDNAKNTVSLQMNSLKPEDTAVYYCNRDRYRYDSWGQGTQLTVSS	high polyreactivity
QVQLVESGGGLVQAGGSLRLSCAASGSIFRYYTMGWYRQAPGKERELVAAISSRGGSTYYADSVKGRFTISRDNAKNTVYLQMNSLKPEDTAVYYCNVLVKRAYQYTYGVDYWGQGTQVTVSS	high polyreactivity
QVQLVESGGGLVQAGGSLRLSCAASVRTFTPYAMGWYRQAPGKEREFVAAISIVGRKKYADSVKGRFTISRDNAKNTVYLQMNSLKPEDTEVYYCNAQDSRDRKFYWGYTRGHWGLGTQVTVSS	low polyreactivity
